Results reported in US9133271 (AbbVie / Abbott, dated 2015).

T1: human DLL3 on cells (h293-hDLL3 cells; endogenous DLL3 on NTX tumor cells) (human, UniProt Q9NYJ7 27-618)
T1 sequence: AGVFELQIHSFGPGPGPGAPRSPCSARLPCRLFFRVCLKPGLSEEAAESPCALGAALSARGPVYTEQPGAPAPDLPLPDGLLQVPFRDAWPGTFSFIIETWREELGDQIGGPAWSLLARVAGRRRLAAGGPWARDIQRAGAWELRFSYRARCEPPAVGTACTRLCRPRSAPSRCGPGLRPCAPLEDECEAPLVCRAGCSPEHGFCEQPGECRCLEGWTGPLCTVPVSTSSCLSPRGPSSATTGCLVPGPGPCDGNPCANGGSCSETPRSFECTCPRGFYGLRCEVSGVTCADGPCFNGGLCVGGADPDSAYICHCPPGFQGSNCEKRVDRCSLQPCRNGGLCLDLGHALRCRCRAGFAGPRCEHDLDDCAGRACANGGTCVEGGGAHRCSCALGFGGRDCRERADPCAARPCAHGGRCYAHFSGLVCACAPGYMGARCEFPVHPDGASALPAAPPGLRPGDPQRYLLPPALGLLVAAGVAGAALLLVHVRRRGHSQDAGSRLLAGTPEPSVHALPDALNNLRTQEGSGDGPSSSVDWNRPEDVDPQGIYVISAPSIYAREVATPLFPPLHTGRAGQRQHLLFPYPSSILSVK

T2: murine DLL3 on 293 cells (h293-mDLL3) (murine, UniProt O88516 33-584)
T2 sequence: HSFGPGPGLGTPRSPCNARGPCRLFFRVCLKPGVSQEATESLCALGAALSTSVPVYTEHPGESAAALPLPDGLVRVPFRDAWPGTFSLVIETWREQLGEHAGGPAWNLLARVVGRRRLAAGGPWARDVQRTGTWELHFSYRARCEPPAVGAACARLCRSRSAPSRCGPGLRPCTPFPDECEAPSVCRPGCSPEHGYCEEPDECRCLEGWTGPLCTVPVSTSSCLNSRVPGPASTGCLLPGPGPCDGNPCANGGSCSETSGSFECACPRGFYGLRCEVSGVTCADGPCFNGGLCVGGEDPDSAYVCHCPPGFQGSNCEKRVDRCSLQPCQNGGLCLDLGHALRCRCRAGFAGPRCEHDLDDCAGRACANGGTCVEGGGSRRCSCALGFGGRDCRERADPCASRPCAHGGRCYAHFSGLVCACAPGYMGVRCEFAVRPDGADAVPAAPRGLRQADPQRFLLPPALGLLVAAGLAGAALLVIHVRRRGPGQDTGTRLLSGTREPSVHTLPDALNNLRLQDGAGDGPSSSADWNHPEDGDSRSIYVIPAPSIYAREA

B1: SC16.8 (antibody, V domains shown)
VH: QAQLQQSGAELVRPGTSVKVSCKASGYAFTNYLIEWVKQRPGQGLEWIGVINPGTGGTNYNENFKGKATLTADKSSSTAYMQLSSLTSDDSAVYFCARSPYDYHEGAMDYWGQGTSVTVSS
VL: EIQMTQSPSSMSASLGDRITITCQATQDIVKNLNWYQQKPGKPPSFLIYYAIELAEGVPSRFSGSGSGSDYSLTISNLESEDFADYYCLQFYEFPFTFGAGTKLELK
B2: SC16.10 (antibody, V domains shown)
VH: QVTLKESGPGILQSSQTLSLTCSFSGFSLSTSGMGVGWIRQPSGKGLEWLAHIWWDDVKRYNPVLKSRLTISKDTSSSQVFLKIASVDTADTATYYCARLVDDLYYFDYWGQGTTLTVSS
VL: QIVLTQSPAIMSASLGERVTMTCTASSSVSSSYLHWYQQKPGSSPKLWIYSTSNLASGVPTRFSGSGSGTSYSLTISSMEAEDAATYYCHQYHRSPFTFGSGTKLEIK
B3: hSC16.13 (antibody, V domains shown)
VH: QITLKESGPTLVKPTQTLTLTCTFSGFSLSTSGMGVGWIRQPPGKALEWLAHIWWDDVKRYSPSLKSRLTITKDTSKNQVVLTMTNMDPVDTATYYCARIVSFDNDVVSAMDYWGQGTLVTVSS
VL: DIQMTQSPSSLSASVGDRVTITCSASSSVSYMYWYQQKPGKAPKLLIYLTSNLASGVPSRFSGSGSGTDFTLTISSLQPEDFATYYCQQWRSNPFTFGQGTKLEIKR
notes: CDR-grafted humanized antibody; also called humanized SC16.13
B4: SC16.25 (antibody, V domains shown)
VH: QVTLKESGPGILQPSQTLSLTCSFSGFSLSTSGMGVGWIRQPSGEGLEWLTDIWWDDNKYYNPSLKSRLTISKDTSSNQVFLNITSVDTADTATYYCARRVNYYYDPYYAMDYWGQGTSVTVSS
VL: QIVLTQSPAIMSASPGEKVTMTCSASSSVSYMHWYQQKSGTSPKRWIYDSSKLASGVPARFSGSGSGTSYSLTISSMEAEDAATYYCQQWSSNPLTFGAGTKLELK
B5: SC16.67 (antibody, V domains shown)
VH: EVQLVETGGGLVQPKGSLKLSCAVSAFTFTTYAMNWVRQAPGKGLEWVARIRNKSNNYATYYADSVKDRFTISRDDSQSMLYLQMNNLKIEDTAMYYCVFYYDYVYWGQGTLVTVSA
VL: QAVVTQESALTTSPGETVTLTCRSSTGAVTTSNYANWIQEKPDHLFTGLIGGTNNRAPGVPARFSGSLIGDKAALTITGAQTEDEAIYFCGLWYSNHLVFGGGTKLTVL
notes: murine anti-DLL3 mAb
B6: SC16.15 (antibody, V domains shown)
VH: QVQLQQSGAELAKPGASVKMSCKASGYTFTRYWIHWIKQRPGQGLEWIGYINPTTVYTEFNQNFKDKATLTADKSSTTASMQLSSLTSEDSAVYYCARGGSNFFDYWGQGTTLTVSS
VL: DIQMTQSPASLAASVGETVAITCRASENIYYNLAWYQQKQGKSPQLLIYTANSLEDGVPSRFSGSGSGTQYSLKINSMQPEDSATYFCKQAYDVPPTFGGGTKLEIK
B7: SC16.34 (antibody, V domains shown)
VH: QIQLVQSGPELKRPGETVKISCKASGYTFTNYGMNWVKQAPGKGLKWMGWINTYTGDPTYADDFKGRFAFSLETSASTAYLQINNLKNEDTATYFCARIGGNSPSDYWGQGTSLTVSS
VL: SIVMTQTPKFLLVSAGDRVTITCKASQSVSNDVAWYQQKPGQSPKLLIYYASNRYSGVPDRFTGSGYGTDFTFTISTVQAEDLAVYFCQQDYSSPWTFGGGTKLEIK
B8: SC16.56 (antibody, V domains shown)
VH: QIQLVQSGPELKKPGETVKISCKASGYTFTNYGMNWVKQAPGKGLKWMAWINTYTGEPTYADDFKGRFAFSLETSASTASLQIINLKNEDTATYFCARIGDSSPSDYWGQGTTLTVSS
VL: SIVMTQTPKFLLVSAGDRVTITCKASQSVSNDVVWYQQKPGQSPKLLIYYASNRYTGVPDRFAGSGYGTDFSFTISTVQAEDLAVYFCQQDYTSPWTFGGGTKLEIR
B9: SC16.4 (antibody, V domains shown)
VH: QIQLVQSGPELKKPGETVKISCKASGYTFTDYSMHWVKQAPGKGLKWMGWINTETGEPGYADDFKGRFAFSLETSASTAYLQINNLKNEDTATYFCARYDGYAMDYWGQGTSVTVSS
VL: DIQMTQTTSSLSASLGDRVTISCRASQDISNYLNWYQQKPDGTVKLLIYYTSRLHSGVPSRFSGSGSGTDYSLTISNLELEDIATYFCQQGDMLPWTFGGGTKLEIK
B10: SC16.39 (antibody, V domains shown)
VH: EVKLEESGGGLVQFGGSMKLSCAASGFTFSDAWMDWVRQSPEKGLEWVAEIRNKANNHATYYPESVKGRFTISRDDSKSRVYLQMNNLRAEDTGIYYCTGYSSFAYWGQGTLVTVSA
VL: DIQMTQTTSSLSASLGDRVTISCRASQDVINYLNWYQQKPDGTVKLLIYYTSRLHSGVPSRFSGSGSRTDYSLTISNLEPEDIATYYCQQYSERPYTFGGGTKLEIK
B11: hSC16.25 (antibody, V domains shown)
VL: EIVLTQSPDFQSVTPKEKVTITCSASSSVSYMHWYQQKPDQSPKLLIKDSSKLASGVPSRFSGSGSGTDFTLTINSLEAEDAATYYCQQWSSNPLTFGQGTKLEIK
V domain: QITLKESGPTLVKPTQTLTLTCTFSGFSLSTSGMGVGWIRQPPGKALEWLTDIWWDDNKYYNPSLKSRLTITKDTSKNQVVLTMTNMDPVDTATYYCARRVNYYYDPYYAMDYWGQGTTLVTVS
notes: CDR-grafted humanized antibody; also called humanized SC16.25
B12: SC16.65 (antibody, V domains shown)
VH: QVTLKESGPGILQPSQTLSLTCSFSGFSLSTSGMGVGWIRQPSGKGLEWLALIWWDDVKRYNPALKSRLTISKDASSSQVFLKIASVDTADTATYYCARIASYDYDVVYAMDYWGQGTSVSVSS
VL: QIVLTQSPALMSASPGEKVTMTCSVTSSVSYMYWYQQKPRSSPKPWIYLTSNLASGVPARFSGSGSGTSYSLTISSVEAEDAATYYCQQWRNNPFTFGSGTKVEIK
B13: SC16.13 (antibody, V domains shown)
VH: QVTLKESGPGILQPSQTLSLTCSFSGFSLSTSGMGVGWIRQPSGKGLEWLAHIWWDDVKRYNPALKSRLTISKDTSSSQVFLKIASVDTADTATYYCARIVSFDNDVVSAMDYWGQGTSVTVSS
VL: QIVLTQSPALVSASPGEKVTMTCSASSSVSYMYWYQQKPRSSPKPWIYLTSNLASGVPARFSGSGSGTSYSLTISSMEAEDAATYYCQQWRSNPFTFGSGTKLEIK

Assays:
[1] = target: T1, human DLL3 on cells (h293-hDLL3 cells; …); experiment: cell-based or functional assay
[2] = target: T2, murine DLL3 on 293 cells (h293-mDLL3); experiment: assay and form of the mouse antigen not given on the sheet; table of properties of humanized constructs
[3] = target: T2, murine DLL3 on 293 cells (h293-mDLL3); experiment: flow cytometry on 293 cells over-expressing murine DLL3
Experimental: For the flow cytometry assays, 50 ×10^4 h293 cells transduced respectively with human, cynomolgus, rat or murine DLL3 were incubated for 30 minutes with 25-100 μL hybridoma supernatant. […] After 15 minutes of incubation, cells were washed twice with PBS/2% FCS and resuspended in PBS/2% FCS with DAPI and analyzed by flow cytometry using a FACSCanto IT as per the manufacturer's instructions.

[4] = target: T1, human DLL3 on cells (h293-hDLL3 cells; …); experiment: cell-based or functional assay; remark: listed apart in the source

| Binder | % Live Cells (in vitro), KDY66 cells, antibody plus anti-mouse IgG Fab-saporin [1] [%] | further results |
| --- | --- | --- |
| B1 | 82 |  |
| B2 | 18 |  |
| B3 |  | binding result [2]: no binding |
| B4 | 28 |  |
| B5 | 37 | binding result [3]: no binding |
| B6 | 24 | EC50 of killing of OV26 NTX tumor cells with anti-mouse IgG Fab-saporin [4]: 0.14 pM |
| B7 | 12 | EC50 of killing of OV26 NTX tumor cells with anti-mouse IgG Fab-saporin [4]: 5.7 pM |
| B8 | 16 |  |
| B9 | 49 |  |
| B10 | 98 |  |
| B11 |  | binding result [2]: no binding |
| B12 | 13 |  |
| B13 | 31 |  |
